The test system of data set [1] is His-TRIM25 (Homo sapiens). The experiment in a line: EMSA. The settings on record: 3 mM Mg2+, 0.5 mM ATP; EMSA: 4.8 mM Tris pH 8, 144 mM NaCl, 0.96 mM DTT, 3 mM MgCl2, 0.5 mM ATP, 37.5 mM creatine phosphate, 16 uL, ~0.1 pmol RNA, 4 C 1 h; pull-down conditions not …. (In general: Mobility shift assays separate free from complexed probe on a gel.)
Data set [2] concerns the molecule itself. The experiment in a line: SEC-MALS; approximately 0.75 mg/mL on Superdex200 Increase 10/300 GL, 1.0 mL/min, 10 mM Tris (pH 8.0), 300 mM NaCl, 0.5 mM TCEP; self-association (tetramer).

As a reminder, the Kd is a measure of binding affinity in units of concentration. Low readings indicate higher affinity, high ones lower affinity. Usually stoichiometry N stands for a count of units in the complex or per binding partner.

In data set [1], pre-let-7a-1 showed a dissociation constant (Kd) of 800 nM.

B1: recombinant His-tagged TRIM25ΔRBD (lacking residues 470–508) (natural protein, human, UniProt Q14258 1-630, looked up)
chain: MAELCPLAEELSCSICLEPFKEPVTTPCGHNFCGSCLNETWAVQGSPYLCPQCRAVYQARPQLHKNTVLCNVVEQFLQADLAREPPADVWTPPARASAPSPNAQVACDHCLKEAAVKTCLVCMASFCQEHLQPHFDSPAFQDHPLQPPVRDLLRRKCSQHNRLREFFCPEHSECICHICLVEHKTCSPASLSQASADLEATLRHKLTVMYSQINGASRALDDVRNRQQDVRMTANRKVEQLQQEYTEMKALLDASETTSTRKIKEEEKRVNSKFDTIYQILLKKKSEIQTLKEEIEQSLTKRDEFEFLEKASKLRGISTKPVYIPEVELNHKLIKGIHQSTIDLKNELKQCIGRLQEPTPSSGDPGEHDPASTHKSTRPVKKVSKEEKKSKKPPPVPALPSKLPTFGAPEQLVDLKQAGLEAAAKATSSHPNSTSLKAKVLETFLAKSRPELLEYYIKVILDYNTAHNKKGIHYWEVELQKNNFCGVGICYGSMNRQGPESRLGRNSASWCVEWFNTKISAWHNNVEKTLPSTKATRVGVLLNCDHGFVIFFAVADKVHLMYKFRVDFTEALYPAFWVFSAGATLSICSPK
Take B1: the “stoichiometry N” value in data set [2] amounted to 4.
